Data: patent US20260116991A1 (HAINAN SIMCERE ZAIMING PHARMACEUTICAL, published 2026)
Where a chain is given by its changes, count along the chain named.

B1: hAb006LH3L1c (antibody, human IgG1, V domains shown)
VH: EVQLVQSGAEVKKPGSSVKVSCKASGYTFTDYEIHWVRQAPGQGLEWMGAIDPKTGNTAYNQKFMGRVTLTADKSTSTAYMELSSLRSEDTAVYYCTRYFSFAYWGQGTLVTVSS
VL: DIVMTQTPLSLPVTPGEPASISCRSSQTFVHSNRNTYLQWYLQKPGQSPQLLIYKVSNRFSGVPDRFSGSGSGTDFTLKISRVEAEDVGVYYCFQGSHVPYTFGQGTKLEIK
notes: Humanized F3.38.7, H3+L1c
B2: hAb007LH1L1e (antibody, human IgG1, V domains shown)
VH: B1 VH with T30S, I34M, A50T, K54E, M65K, L70I, Y99P, F100Y, F102L, A103T
VL: B1 VL with T28S, R34V, N35D
notes: Humanized F3.81.19, H1+L1e
B3: hAb006LH3L1e (antibody, human IgG1, V domains shown)
VH: B1 VH
VL: B1 VL with R34V
notes: Humanized F3.38.7, H3+L1e
B4: hAb006LH3L1d (antibody, human IgG1, V domains shown)
VH: B1 VH
VL: B1 VL with R34S
notes: Humanized F3.38.7, H3+L1d
B5: hAb007LH1L1d (antibody, human IgG1, V domains shown)
VH: B1 VH with T30S, I34M, A50T, K54E, M65K, L70I, Y99P, F100Y, F102L, A103T
VL: B1 VL with T28S, R34S, N35D
notes: Humanized F3.81.19, H1+L1d
B6: hAb007LH1L1c (antibody, human IgG1, V domains shown)
VH: B1 VH with T30S, I34M, A50T, K54E, M65K, L70I, Y99P, F100Y, F102L, A103T
VL: B1 VL with T28S, R34A, N35D
notes: Humanized F3.81.19, H1+L1c
B7: hAb001H1aL1b (antibody, human IgG1, V domains shown)
VH: EVQLVESGGGLVQPGGSLRLSCAASGFSFNTNAMNWVRQAPGKGLEWVGRIRSKSNNYATYYADSVKGRFTISRDDSKNSLYLQMNSLKTEDTAVYYCVRDGYYVLFAYWGQGTLVTVSS
VL: B1 VL with S25F, T28S, F29I, H31N, R34A, Q39E, Y41F, Y101F
notes: Humanized F2.169.2, H1a+L1b
B8: hAb001H2L1a (antibody, human IgG1, V domains shown)
VH: B7 VH with G68D, N79S
VL: B1 VL with S25F, T28S, F29I, H31N, N33D, R34G, Q39E, Y41F, Y101F
notes: Humanized F2.169.2, H2+L1a
B9: hAb001H2L1 (antibody, human IgG1, V domains shown)
VH: B7 VH with G68D, N79S
VL: B1 VL with S25F, T28S, F29I, H31N, R34G, Q39E, Y41F, Y101F
notes: Humanized F2.169.2, H2+L1
B10: hAb001H2L1b (antibody, human IgG1, V domains shown)
VH: B7 VH with G68D, N79S
VL: B1 VL with S25F, T28S, F29I, H31N, R34A, Q39E, Y41F, Y101F
notes: Humanized F2.169.2, H2+L1b

target: T1, GPC3 on HepG2 cells (human, UniProt P51654 25-554); assay: FACS on HepG2 cells
T1 construct: whole, on cells; also called glypican-3
Protocol: The desired cells were expanded to a logarithmic growth phase in a T-75 cell culture flask, the medium was removed by pipetting, and the cells were washed twice with a PBS buffer, and digested with trypsin. Then a complete medium was added to stop the digestion, and the cells were blown into a single cell suspension. After counting, the cells were centrifuged, and the cell pellet was resuspended with an FACS buffer (PBS+2% fetal bovine serum) to 2×10⁶ cells/mL. The cell resuspension solution was added to a 96-well FACS reaction plate at 50 μl/well, and a humanized antibody sample to be tested was added at 50 μl/well for incubation at 4° C. for 1 h. […] After the plate was centrifuged and washed 3 times with a PBS buffer, 100 μl of the resulting solution was assayed and analyzed by FACS (FACS Canto™, purchased from BD Biosciences). Data analysis was performed by software (FlowJo) to obtain the mean fluorescence intensity (MFI) of the cells. Then, analysis was performed by software (GraphPad Prism8), data were fitted, and EC₅₀ values were calculated.

Row | Binder | EC50 [nM] | Max MFI
1 | B1 | 0.417 | 3520
2 | B2 | 10.1 | 2910
3 | B3 | 1.01 | 2780
4 | B4 | 0.772 | 3500
5 | B5 | 4.39 | 3830
6 | B6 | 3.67 | 3770

target: T2, murine GPC3-his protein (murine, UniProt Q8CFZ4 25-558, limits assumed); assay: ELISA, murine GPC3-his coated; antibody 0.02 nM
T2 construct: Bought protein; also called mouse GPC3 protein; murine GPC3 protein; not shown: His tag
T2 sequence (Q8CFZ4 25-558 limits assumed): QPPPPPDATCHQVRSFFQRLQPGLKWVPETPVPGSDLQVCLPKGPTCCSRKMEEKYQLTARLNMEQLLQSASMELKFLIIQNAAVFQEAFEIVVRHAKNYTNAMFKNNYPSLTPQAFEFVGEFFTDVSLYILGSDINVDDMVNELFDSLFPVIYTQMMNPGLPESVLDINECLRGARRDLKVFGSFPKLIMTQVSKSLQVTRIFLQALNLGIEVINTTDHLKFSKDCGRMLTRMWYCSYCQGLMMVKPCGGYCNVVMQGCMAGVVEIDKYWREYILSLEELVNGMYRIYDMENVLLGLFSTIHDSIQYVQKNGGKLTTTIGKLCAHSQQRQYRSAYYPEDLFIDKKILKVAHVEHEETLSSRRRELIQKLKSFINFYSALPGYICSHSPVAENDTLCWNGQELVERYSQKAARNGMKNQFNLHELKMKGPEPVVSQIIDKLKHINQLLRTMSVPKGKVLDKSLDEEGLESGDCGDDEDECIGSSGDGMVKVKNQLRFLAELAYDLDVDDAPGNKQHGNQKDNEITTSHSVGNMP

Row | Binder | OD450 nm
7 | B7 | 1.15
8 | B8 | 0.664
9 | B9 | 1.27
10 | B10 | 1.09

target: T2, murine GPC3-his protein; assay: ELISA, murine GPC3-his coated; antibody 0.11 nM
Protocol: (§1) The specific method is described as follows: The antigen protein was diluted with PBS to a final concentration of 1 μg/mL, and the diluent was added to a 96-well ELISA plate at 50 μL/well. The plate was sealed with a plastic film and incubated at 4° C. overnight, washed twice with PBS the next day, and a blocking solution [PBS+2% (w/w) BSA] was added for blocking at room temperature for 2 h. […] After incubation at 37° C. for 2 h, the plate was washed 3 times with PBS. A horseradish peroxidase (HRP)-labeled secondary antibody (purchased from Merck, Cat. No. AP113P) was added for incubation at 37° C. for 1 h, and the plate was washed 5 times with PBS. A TMB substrate was added at 50 μL/well for incubation at room temperature for 10 min, then a stop solution (1.0M HCl) was added at 50 μL/well.

Row | Binder | OD450 nm
11 | B7 | 2.05
12 | B8 | 1.59
13 | B9 | 2.1
14 | B10 | 2.06

target: T2, murine GPC3-his protein; assay: ELISA, murine GPC3-his coated; antibody 0.53 nM
Protocol: as §1

Row | Binder | OD450 nm
15 | B7 | 2.52
16 | B8 | 2.19
17 | B9 | 2.48
18 | B10 | 2.38

target: T2, murine GPC3-his protein; assay: ELISA, murine GPC3-his coated; antibody 2.67 nM
Protocol: as §1

Row | Binder | OD450 nm
19 | B7 | 2.68
20 | B8 | 2.35
21 | B9 | 2.59
22 | B10 | 2.44

target: T3, monkey GPC3-His protein (monkey); assay: ELISA, monkey GPC3-His coated; antibody 0.02 nM
T3 construct: Bought protein; also called monkey GPC3 protein
Protocol: as §1

Row | Binder | OD450 nm
23 | B7 | 1.02
24 | B8 | 0.34
25 | B9 | 1.05
26 | B10 | 0.865

target: T3, monkey GPC3-His protein; assay: ELISA, monkey GPC3-His coated; antibody 0.11 nM
Protocol: as §1

Row | Binder | OD450 nm
27 | B7 | 1.99
28 | B8 | 1.13
29 | B9 | 2.11
30 | B10 | 1.93

target: T3, monkey GPC3-His protein; assay: ELISA, monkey GPC3-His coated; antibody 0.28 nM
Protocol: as §1

Row | Binder | OD450 nm
31 | B1 | 1.24
32 | B2 | 0.399
33 | B3 | 1.14
34 | B4 | 1.1
35 | B5 | 0.752
36 | B6 | 0.744

target: T3, monkey GPC3-His protein; assay: ELISA, monkey GPC3-His coated; antibody 0.53 nM
Protocol: as §1

Row | Binder | OD450 nm
37 | B7 | 2.39
38 | B8 | 2.02
39 | B9 | 2.47
40 | B10 | 2.54

target: T3, monkey GPC3-His protein; assay: ELISA, monkey GPC3-His coated; antibody 1.39 nM
Protocol: as §1

Row | Binder | OD450 nm
41 | B1 | 1.32
42 | B2 | 0.848
43 | B3 | 1.07
44 | B4 | 1.28
45 | B5 | 1.2
46 | B6 | 1.3

target: T3, monkey GPC3-His protein; assay: ELISA, monkey GPC3-His coated; antibody 2.67 nM
Protocol: as §1

Row | Binder | OD450 nm
47 | B7 | 2.39
48 | B8 | 2.25
49 | B9 | 2.59
50 | B10 | 2.45

target: T3, monkey GPC3-His protein; assay: ELISA, monkey GPC3-His coated; antibody 6.94 nM
Protocol: as §1

Row | Binder | OD450 nm
51 | B1 | 1.33
52 | B2 | 1.17
53 | B3 | 1.22
54 | B4 | 1.29
55 | B5 | 1.3
56 | B6 | 1.26

target: T2, murine GPC3-his protein; assay: ELISA, murine GPC3-his coated; antibody 0.004 nM
Protocol: as §1

Row | Binder | OD450 nm
57 | B7 | 0.346
58 | B8 | 0.191
59 | B9 | 0.524
60 | B10 | 0.407

target: T2, murine GPC3-his protein; assay: ELISA, murine GPC3-his coated; antibody 13.33 nM
Protocol: as §1

Row | Binder | OD450 nm
61 | B7 | 2.73
62 | B8 | 2.41
63 | B9 | 2.62
64 | B10 | 2.58

target: T2, murine GPC3-his protein; assay: ELISA, murine GPC3-his coated; antibody 66.66 nM
Protocol: as §1

Row | Binder | OD450 nm
65 | B7 | 2.76
66 | B8 | 2.48
67 | B9 | 2.62
68 | B10 | 2.64

target: T3, monkey GPC3-His protein; assay: ELISA, monkey GPC3-His coated; antibody 0.002 nM
Protocol: as §1

Row | Binder | OD450 nm
69 | B1 | 0.122
70 | B2 | 0.148
71 | B3 | 0.114
72 | B4 | 0.121
73 | B5 | 0.078
74 | B6 | 0.069

target: T3, monkey GPC3-His protein; assay: ELISA, monkey GPC3-His coated; antibody 0.004 nM
Protocol: as §1

Row | Binder | OD450 nm
75 | B7 | 0.347
76 | B8 | 0.094
77 | B9 | 0.4
78 | B10 | 0.317

target: T3, monkey GPC3-His protein; assay: ELISA, monkey GPC3-His coated; antibody 0.011 nM
Protocol: as §1

Row | Binder | OD450 nm
79 | B1 | 0.332
80 | B2 | 0.14
81 | B3 | 0.24
82 | B4 | 0.308
83 | B5 | 0.09
84 | B6 | 0.103

target: T3, monkey GPC3-His protein; assay: ELISA, monkey GPC3-His coated; antibody 0.056 nM
Protocol: as §1

Row | Binder | OD450 nm
85 | B1 | 0.876
86 | B2 | 0.148
87 | B3 | 0.67
88 | B4 | 0.719
89 | B5 | 0.235
90 | B6 | 0.268

target: T3, monkey GPC3-His protein; assay: ELISA, monkey GPC3-His coated; antibody 13.33 nM
Protocol: as §1

Row | Binder | OD450 nm
91 | B7 | 2.54
92 | B8 | 2.34
93 | B9 | 2.64
94 | B10 | 2.47

target: T3, monkey GPC3-His protein; assay: ELISA, monkey GPC3-His coated; antibody 34.72 nM
Protocol: as §1

Row | Binder | OD450 nm
95 | B1 | 1.26
96 | B2 | 1.14
97 | B3 | 1.26
98 | B4 | 1.3
99 | B5 | 1.25
100 | B6 | 1.25

target: T3, monkey GPC3-His protein; assay: ELISA, monkey GPC3-His coated; antibody 66.66 nM
Protocol: as §1

Row | Binder | OD450 nm
101 | B7 | 2.59
102 | B8 | 2.22
103 | B9 | 2.68
104 | B10 | 2.58

target: T2, murine GPC3-his protein; assay: ELISA, murine GPC3-his coated; antibody 0.0008 nM
Protocol: as §1

Row | Binder | OD450 nm
105 | B7 | 0.185
106 | B8 | 0.094
107 | B9 | 0.277
108 | B10 | 0.199

target: T3, monkey GPC3-His protein; assay: ELISA, monkey GPC3-His coated; antibody 0.0004 nM
Protocol: as §1

Row | Binder | OD450 nm
109 | B1 | 0.071
110 | B2 | 0.043
111 | B3 | 0.066
112 | B4 | 0.068
113 | B5 | 0.053
114 | B6 | 0.05

target: T3, monkey GPC3-His protein; assay: ELISA, monkey GPC3-His coated; antibody 0.0008 nM
Protocol: as §1

Row | Binder | OD450 nm
115 | B7 | 0.144
116 | B8 | 0.063
117 | B9 | 0.304
118 | B10 | 0.143
